Data reported in the nanobody polyreactivity screen of Harvey et al. (2022).

Test: yeast display, Sf9 membrane polyspecificity reagent, FACS + sequencing; frameworks hold sequencing errors
In short: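 Polyreactivity labels are assigned by the sorting gate from which each nanobody was recovered. The gates were low and high (top ~1%), set on anti-HA fluorescence for expression and streptavidin fluorescence for reagent binding. Before sorting, galactose-induced (36–48 hours) yeast display cells were stained for 1 hour at 4 °C with 10% biotinylated, detergent-solubilized Sf9 membrane reagent.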
For “QVQLVESGGGLVQAGGSLRLSCAASGRIFSYYAMGWYRQAPGKDRELVAAISRSGGRTYYADSVKGRFTISRDNAKNTVYLQMNSLNPEDTAVYYCAATFSRGYDYWGQGTQVTVSS”, the “polyreactivity (PSR sort gate)” value was “high polyreactivity”. In the case of “QVQLVESGGGLVQAGGSLRLSCAASGRIFSYYAMGWYRQAPGKERELVAAISRSGVRTYYADSVKGRFTISRDNAKNTVYLQMNSLKAEDTAVYYCAASGKRFAYIKGRSRPAYGYDYWGQGTQVTVSS”, the “polyreactivity (PSR sort gate)” value is reported as “high polyreactivity”. With “QVQLVESGGGLVQAGGSLRLSCAASGRIFSYYAMGWYRQAPGKERELVAAISRTGGTTYYADSVKGRFTISRDTAKNTVFLQMNSLKPEDTAVYYCNAVKAPYLRYDYWGQGTQVTVSS” the “polyreactivity (PSR sort gate)” value was “high polyreactivity”. With “QVQLVESGGGLVQAGGSLRLSCAASGRIFSYYAMGWYRQAPGKERELVASITWSGGSTYYADSVKGRFTISRDYAKNTVYLQMNRLKPEDTAVYYCNTAVLAPYDSGYWGQGTQVTVSS” the “polyreactivity (PSR sort gate)” value was “low polyreactivity”. In the case of “QVQLVESGGGLVQAGGSLRLSCAASGRIFSYYDMGWYRQAPGKEREFVAGITWNGGSTYYADSVKGRFTISRDNAKNTVYLQMNSLKPEDTAVYYCAAGVWRTRDWTYYYWGQGTQVTVSS”, the “polyreactivity (PSR sort gate)” value is reported as “high polyreactivity”. With “QVQLVESGGGLVQAGGSLRLSCAASGRIFSYYTMGWYRQAPGKERELVAAITSGDSTNYADSVKGRFTISRDNAKNTVYLQMNSLKPEDTAVYYCNARYSGWRSRVGSSHRPDGYWGQGTQVTVSS” the “polyreactivity (PSR sort gate)” value was “high polyreactivity”. For “QVQLVESGGGLVQAGGSLRLSCAASGRIFTAYTMGWYRQAPGKERELVAAISTSGTSTYYADSVKGRFTISRDNAKNTVYLQMNSLKPEDTAVYYCATDYYYYPHSQYDYWGQGTQVTVSS”, the “polyreactivity (PSR sort gate)” value was “low polyreactivity”. With “QVQLVESGGGLVQAGGSLRLSCAASGRIFTCYAMGWYRQAPGKERELVAAISSAGRTYYADSVKGRFTISRDNAKNTVYLQMNSLKPEDSAVYYCAKVSKYRHFYTFDYWGQGTQVTVSS” the “polyreactivity (PSR sort gate)” value was “high polyreactivity”. With “QVQLVESGGGLVQAGGSLRLSCAASGRIFTDYAMGWYRQAPGKERELVAAISSGGSTYYADSVKGRFTISRDNAKNTVYLQMNSLKPEDTAVYFCAAELFYGRSSSGYYYWGQGTQVTVSS” the “polyreactivity (PSR sort gate)” value was “high polyreactivity”. For “QVQLVESGGGLVQAGGSLRLSCAASGRIFTGYAMGWYRQAPGKERELVAAISSSGGTTYYADSVKGRFTISRDNAKNTVYLQMNSLKPEDTAVYYCATDYSYSVDALKYLLYDYWGQGTQVTVSS”, the “polyreactivity (PSR sort gate)” value was “low polyreactivity”. With “QVQLVESGGGLVQAGGSLRLSCAASGRIFTGYAMGWYRQAPGKEREVVAAISRGGSTNYADSVKGRFTISRDNAKNTVYLQMNSLKPEDTAVYYCAAGVHWDRGDYWGQGTQVNVSS” the “polyreactivity (PSR sort gate)” value was “low polyreactivity”. In the case of “QVQLVESGGGLVQAGGSLRLSCAASGRIFTGYVMGWYRQAPGKERELVAAITYTGGSTFYADSVKGRFTISRDNAKNTVYLQMNSLKPEDTAVYYCAADESPYFLDIVTYYEFDYWGQGTQVTVSS”, the “polyreactivity (PSR sort gate)” value is reported as “low polyreactivity”. In the case of “QVQLVESGGGLVQAGGSLRLSCAASGRIFTHNAMGWYRQAPGKERELVAAISYSGVSTYYADSVKGRFTISRDNAKNTVYLQMNSLKPEDTAVYYCAARSRSWRQRYGDFDYWGQGTQVTVSS”, the “polyreactivity (PSR sort gate)” value is reported as “low polyreactivity”. With “QVQLVESGGGLVQAGGSLRLSCAASGRIFTHNAMGWYRQAPGKERELVAAISYSGVSTYYADSVKGRFTISRDNAKNTVYLQMNSLKPEDTAVYYCNALIQSWRARIRRYYWGQGTQVTVSS” the “polyreactivity (PSR sort gate)” value was “low polyreactivity”. For “QVQLVESGGGLVQAGGSLRLSCAASGRIFTINAMGWYRQAPGKERELVATISDRGGSTYYADTVKGRFTISRDNAKNTVYLQMNSLKPEDTAVYYCAARWGRGLEFDYWGQGTQVTVSS”, the “polyreactivity (PSR sort gate)” value was “high polyreactivity”. With “QVQLVESGGGLVQAGGSLRLSCAASGRIFTIYAMGWYRQAPAKARELVAAISDRGTRTYYADSVKGRFTISRDNAKNTVFLKMNSLKPEDTAVYYCASDALYTYGYDYWGKGTQVTVSS” the “polyreactivity (PSR sort gate)” value was “low polyreactivity”. With “QVQLVESGGGLVQAGGSLRLSCAASGRIFTLYAMGWYRQAPGKEREFVAAINRGGSTNYADSVKGRFTISRDNAKNTVYLQMNSLKPEDTAVYYCAAKTTSRFRTYSYDYWGQGTQVTVSS” the “polyreactivity (PSR sort gate)” value was “high polyreactivity”. In the case of “QVQLVESGGGLVQAGGSLRLSCAASGRIFTLYAMGWYRQAPGKERELVAGISRSGGSTYYADSVKGRFTISRDNAKNTVYFQMNSLKPEDTAVYYCNAVPIYYAWRRNKPFDYWGQGTQVTVSS”, the “polyreactivity (PSR sort gate)” value is reported as “low polyreactivity”. In the case of “QVQLVESGGGLVQAGGSLRLSCAASGRIFTLYTMGWYRQAPGKERELVAAINRGGSTTYADSVKGRFTISRDNAKNTVYLQMNSLKPEDTAVYYCAAYRYTSRVYSYWRGYDYWGQGTQVTVSS”, the “polyreactivity (PSR sort gate)” value is reported as “high polyreactivity”. In the case of “QVQLVESGGGLVQAGGSLRLSCAASGRIFTNNPMGWYRQAPGQERELVAAISRSGGRTYYADSVKGRFTISRDNAKNTVYLQRNCLKPEDTAVYYCAAVHLYYGYNSPFTMDYWGQGTQVTVSS”, the “polyreactivity (PSR sort gate)” value is reported as “high polyreactivity”. In the case of “QVQLVESGGGLVQAGGSLRLSCAASGRIFTPYAMGWYRQAPGKEREFVATISFRGDSTYYADSVKGRFTISRDNAKNSVYLQMNSLKPEDTAVYYCAARQYGGYGYWGQGTQVTVSS”, the “polyreactivity (PSR sort gate)” value is reported as “high polyreactivity”. With “QVQLVESGGGLVQAGGSLRLSCAASGRIFTPYAMGWYRQAPGKERELVAAISSSGGSTYYADSVKGRFTISRDNAKNTVYLQMNSLKPEDTAVYYCAAVHYRHVRYDYWGQATQVTVSS” the “polyreactivity (PSR sort gate)” value was “high polyreactivity”. For “QVQLVESGGGLVQAGGSLRLSCAASGRIFTPYAMGWYRQAPGKERELVAVIRDGSTYYADSVKGRFTISRDNAKNTVYLQMNSLKPEDTAVYYCAVRHRYTRAYWGRDYWGQGTQVTVSS”, the “polyreactivity (PSR sort gate)” value was “low polyreactivity”. In the case of “QVQLVESGGGLVQAGGSLRLSCAASGRIFTPYAMGWYRQARGKEREVVAVIRDGSTYYADSVKGSFTISRDNAKNTVYLQMNSLKPEDTAVYYCRYDIWVWWSGAYDYWGQGTQVTVSS”, the “polyreactivity (PSR sort gate)” value is reported as “low polyreactivity”. For “QVQLVESGGGLVQAGGSLRLSCAASGRIFTQNAMGWNRQAPGKERELVAAISYSGVSTYYADSVKGRFTISRDNAKNTVYLQMNSLKPEDTAVFYCARRYWYPDAFYRYDYWGLGTQVTVSS”, the “polyreactivity (PSR sort gate)” value was “low polyreactivity”. With “QVQLVESGGGLVQAGGSLRLSCAASGRIFTQYAMGWYRPPPGKERELVAAINASDGSTYADSVKGRFTISRDNAKNTVYLQMKSLKPEDTAVYYCNVTGGPYDFTRWSEFDHWGQGTQVTVSS” the “polyreactivity (PSR sort gate)” value was “low polyreactivity”. In the case of “QVQLVESGGGLVQAGGSLRLSCAASGRIFTRYAMGWYRKEPGKERELVAAISYGGGGTYYADSVKGRFTISRDNAKNTVYLQMNSLKPEDTAVYYCATDDPLSQINEQGMDYWGQGTQVTVSS”, the “polyreactivity (PSR sort gate)” value is reported as “low polyreactivity”. With “QVQLVESGGGLVQAGGSLRLSCAASGRIFTRYAMGWYRPAPGKERELVAVIRYSGGSTYYADSVKGRFTISRDNAKNTVYLQMNSLKPEDTAVYYCAAYARGVRRYRRYDYWGQGTQVTVSS” the “polyreactivity (PSR sort gate)” value was “high polyreactivity”. In the case of “QVQLVESGGGLVQAGGSLRLSCAASGRIFTRYAMGWYRQAPGKERELVAAISYGGGGTYYADSVKGRFTISRDNAKNTVYLQMNSLKPEDTAVYYCATDDPLSQINEQGMDYWGQGTQVTVSS”, the “polyreactivity (PSR sort gate)” value is reported as “low polyreactivity”. In the case of “QVQLVESGGGLVQAGGSLRLSCAASGRIFTRYAMGWYRQAPGKERELVAAITQRGGTTYYADSVKGRFTISRDNAKNTVYLQMNSLKPEDTAVDYCATRYRYYTERDYWGQGTQVTVSS”, the “polyreactivity (PSR sort gate)” value is reported as “high polyreactivity”. For “QVQLVESGGGLVQAGGSLRLSCAASGRIFTRYAMGWYRQAPGKERELVATISRGGNTNYADSVKGRFTISRDNAKNTVYLQMNSLKPEDTAVYYCAKYPVSRVGGYGYWGQGTQVTVSS”, the “polyreactivity (PSR sort gate)” value was “low polyreactivity”.
